For 1 molecule, cAMP production, EC50 results are on record in article PMC5892705.

This assay has as its target human vasopressin V2 receptor (human), P30518.

B1: [Se-Se]-OT-OH (peptide)
chain: UYIQNUPLG
modifications: not checked
B1 had a cAMP production, EC50 of 109 nM.
